For the test, the target named is T1, amyloid-β peptide residues 12–28 (Aβ12–28), wild type.
T1 construct: cut product of the amyloid precursor protein; numbers count on: the Aβ peptide (Asp1 of Aβ); also called Aβ peptide; mid-region of the Aβ peptide; source: bought: Anaspec (95% purity)
T1 chain: VHHQKLVFFAEDVGSNK
In words: crystal structure; Fab:Aβ12–28 mixed at molar ratio 1:2, dialysed in 10 mM HEPES pH 7.5; crystals from 16% w/v PEG 3350, 50 mM sodium citrate pH 4, 295 K; 2.4 Å, two complexes in the asymmetric unit. The settings on record: both partners purified.

B1: solanezumab Fab fragment (recombinant, Asn55(H2)Ser) (Fab, V domains shown)
VH: EVQLVESGGGLVQPGGSLRLSCAASGFTFSRYSMSWVRQAPGKGLELVAQINSVGSSTYYPDTVKGRFTISRDNAKNTLYLQMNSLRAEDTAVYYCASGDYWGQGTLVTVSS
VL: DVVMTQSPLSLPVTLGQPASISCRSSQSLIYSDGNAYLHWFLQKPGQSPRLLIYKVSNRFSGVPDRFSGSGSGTDFTLKISRVEAEDVGVYYCSQSTHVPWTFGQGTKVEIK
notes: Fab heavy chain of solanezumab; glycosylation site removed by Asn55(H2)Ser; Fab light chain of solanezumab; Parent antibody is IgG1; only the Fab portion was made; source: FreeStyle 293-F cells, co-transfected, purified from supernatant (Ni-NTA, SEC)
Take B1: the binding result is on record as “binds”.
